In publication PMC12494544 (The Journal of Biological Chemistry, 2025):

Biological target: the molecule itself
Experiment: crystal structure; PseM (28-186) at 27 mg/ml; 0.1 M Mes monohydrate pH 7.0, 2.0 M NaCl, 1% benzamidine-HCl, 291 K; SAD, 2.0 Å, space group P4(3)2(1)2; homodimer in the asymmetric unit

B1: N-terminal-truncated PseM (residues from 28 to 186) (enzyme)
chain: STGDYWIVYGKGERYNNEVFVANATGILQQPKGIQSAQIIQLFEDRSMPTLTAYEVQFKCKERRVRFDNARAMRRIDNVITNVKTVDGWIDPEKYDYWLQRSFAFVCAPAIRDNNQMLPLGKMPIARMVQTVQAMFVELQGVQAKKQTMRDLDAMLGNE
notes: PseM (PA0989), P. aeruginosa, residues 28 to 186, without the N-terminal signal peptide
stoichiometry N: 2
